# The DeepSol protein solubility set
# Test: soluble on expression in E. coli; label from the status in PepcDB or PDB records
row,Sequence,soluble on expression in E. coli
1,MSLKRLTSRRQKGGGCPDLTIRAHHLLCMRGFQGYGYSEEFTENLARIIHEIKGNPSAFLMIVDFPDDICRACPFMDGLRCLRDEERIRSMDRRVLELLKLESGCMVTFHDIEDALLALITSGKIMEICGECSWMDLCLIHREGHHHHHH,not soluble
2,MIISPLFLKDKSNSEDDASWVSRMMPVDPERGFPLNSHRSWHGGIHIPHTDSGGTPEKIRAIADGTVHSLRQPVGDKKGIPPYNYNGATDCGYVLLKHETEIGSGENAKVVYFSLYMHLASIDAAVKTGEKIYRKDPIGTVGQVDGGNAVHFQIFCDDTNLTKLVGRTTPELDLTKNGRTDAVYGDMYFYLPTGTKFYSHAPANNATTTTEAETYTSTEPLFVSMSFDKGKCTMLTRKKGVFSIGKYSEVGEKLENTDGADYEYNVYAQAKKLYPQSQSAGYELLRFGRVINTDYETLVPADAPLWRTISYPGGKGVVNLALPAVKKFSDGDFPHWTGWQLIDDDTDENSQCNSEQVLCRIGDDMQGLICHLPLEWDASTLEKRLSWLKTTVINESLANQKASHQVDDTGNNASGYAFDNINPDMSVLNAQSTPSFEQAAKDTAMAEADWNALIEHAKALCFDVSGLPVGRVWHFNPISFIAHFRKCGWLDPEKIKSILTSALNKKRNVRKITLIEKASDSNYTFLNLAMRKYNILTPNRQSHFLGQGAVESDSLTAMQEVSQEQVIVNGKQTGGGIVIKSTLNESELGHWYGSEPSELDIYYSGNKYNKNGGLIAGSYSWSNGNCGDVDAQKFRGRGFKMLTGRDKYADYWVYRGWLLKSSFDAYWWDDVKYKSKNLKAMKKRPAIIDDPHKITASPYNCIDSGSFFITCFRRSTVKEIDKDQAESADDSVVTKVTQAINGGDIGLSQRKVMTNNAKGKLNDKY,not soluble
3,MVALPTINQLVRKGREKVRKKSKVPALKGAPFRRGVCTVVRTVTPKKPNSALRKVAKVRLTSGYEVTAYIPGEGHNLQEHSVVLIRGGRVKDLPGVRYHIVRGVYDAAGVKDRKKSRSKYGTKKPKEAAKTAAKK,soluble
4,GPGSMVGPYNSKAGVVLVCDIFGLLPNSKRFADVLAEHGFLVAMPDFFGPLAWPESEWPADFQSMRWLQYVEKITQFDAFVPQMEAAIAVLRQMGCAKVGAIGMCWGAALPFMMAAQGKIDAAAAAHPSFFTADAVRAAKTPVLVLPSKDEPPMDDVEAAVNSHPMEPHVHKRFDALHHGFFGARYNPDAYTAEELKDVETARQLVLDFFKKSLH,not soluble
5,LDGVLVPESGILVSVGQDVDSVNDYASALGTIPAGVTNYVGIVNLDGLNSDADAGAGRNNIAELANAYPTSALVVGVSMNGEVDAVASGRYNANIDTLLNTLAGYDRPVYLRWAYEVDGPWNGHSPSGIVTSFQYVHDRIIALGHQAKISLVWQVASYCPTPGGQLDQWWPGSEYVDWVGLSYFAPQDCNWDRVNEAAQFARSKGKPLFLNESTPQRYQVADLTYSADPAKGTNRQSKTSQQLWDEWFAPYFQFMSDNSDIVKGFTYINADWDSQWRWAAPYNEGYWGDSRVQANALIKSNWQQEIAKGQYINHSETLFETLGYGSTHHHHHH,soluble
6,MAHHHHHHMLNILSYSKLFSSCGRQAVTCPKGCNSYRHVSTGSDECLFTDGRASMGREFTLQPVEMEPVFKVHRPYSSSNCDNPISEDDLPYECGASSDCNTRSSTLRERAVCDEPLAKGLQNTTASTPYRVSWYERGAVSPSKRFVYWAFRRLWDLPPDAREYYRRMLYQEVRAARYVNQTWDCFMMVVDGYRKGKWILKKYGIKIDEGLIPKPYNNFWEETTHEERVWAHRRSHQMKDLQALQREDDNLVFGAHIMDRREVTYGSVKNLQTGMQGGTPVHAHDLPAPFEADVKMSLHEEDISSALMSSIEDDKLWNPVLRSRVHNKLARDEAELYGFEDEDDGDDRS,not soluble
7,SKKVIVIAGTTGVGKSQLSIQLAQKFNGEVINSDSMQVYKDIPIITNKHPLQEREGIPHHVMNHVDWSEEYYSHRFETECMNAIEDIHRRGKIPIVVGGTHYYLQTLFNKRVDTKSSERKLTRKQLDILESTDPDVIYNTLVKCDPDIATKYHPNDYRRVQRMLEIYYKTGKKPSETFNEQKITLKFDTLFLWLYSKPEPLFQRLDDRVDDMLERGALQEIKQLYEYYSQNKFTPEQCENGVWQVIGFKEFLPWLTGKTDDNTVKLEDCIERMKTRTRQYAKRQVKWIKKMLIPDIKGDIYLLDATDLSQWDTNASQRAIAISNDFISNRPIKQERAPKALEELLSKGETTMKKLDDWTHYTCNVCRNADGKNVVAIGEKYWKIHLGSRRHKSNLKRNTRQADFEKWKI,soluble
8,MGSDKIHHHHHHMQSKIAEAIKLGNQPVAVMRSDAKPEGAMQFKEGRWGCAISLLNMAAKGQVAVFANSTTTCSGGKVGLGFRQFELGFIEHFLSVGGVGGREGEFYKKNPELAGKFALELPKVTAKEYIIFKPLSELKADETPEGIIFLANADQISALTVLANYDRPTQDNVKVNFGAGCHQTVLFTLDQVDKDEDHCFIGLTDPSARKFIDKDILSFSMTYKRFLELEEQVEESFLTKETWLKVAERI,not soluble
9,MGSDKIHHHHHHMPRYQHIARQLKTAIEQGELAPGTRLPSSRTWAQELGVSRATVENAYGELVAQGWLERRGQAGTFVSNALRFETAPPIPAVFAGESPEPKPFQMGLPALDLFPREKWARVMGRRLRTQTCFDLALGDVCGEAILRQAIVDYLRVSRSIECLPEQVFITSGYADSMRLILRTLSVPGDSMWVEDPGFPLIRPVITQEGITLAPIPVDADGLNVAAGMRDCPQGRFALVTPAHQSPLGVALSLTRRRQLLAWAANVQAWIIEDDYDSEFRYHGKPLPPLKSLDAPQRVIYAGTFSKSLFPALRTAWLVVPIKQIEHFRQQASLMPCSVPLLWQHTLADFIRDGHFWRHLKKMRQHYAQRRLWIEEALAEQGFVVTLQKGGIQLVIEVEGDDKAQVAKANQAGLAVQALSRWRVVSSGKGGILLSFTNITSAGMAKQVACQLRQAIQ,not soluble
10,MGHHHHHHSHMLKKAKMAKDRKSRKKPVEVKKGKDPNAPKRPMSAYMLWLNASREKIKSDHPGISITDLSKKAGEIWKGMSKEKKEEWDRKAEDARRDYEKAMKEYEGGRG,soluble
11,MINSINIQIRETNTDDFDSIMTVEKQAFGYDKEAQLVADLLADKTAEPMVSLLAFYKGEAVGHILFTRAYFDGQGALQMMHILAPLAVKPEYQRQGIGGMLIRAGIERLQEKGSCLVFVLGHKEYYPEYGFIPDAARLGYPAPYPILEQFSDYWMVQAISPKGFDVDKGKIRCSDELNKPEHWRDDESDR,not soluble
12,MGSDKIHHHHHHMNGKAVQLKEEADEPGWEVDPDDEWGVAVVETVGRQLKLRREALGMRAADFGTAVGYGEDMVYKIESGKRIPRPEFLDRADELLGAGGLLSAMKEDVKKVRYPKNVREIAKLEAQAVELGVYVGLSLHGLLQTPEHARALFEVWQPAYSPEEAERRMAARMARKAIFERSPAPALSFVQEEATLRRPVGGTMVWRQQLEHLLEVGQLRNVTLQVMPTNSEAHPGLSGRIEVLKFSDGTAVGRSDGAYNGRPISDPKQLRILELRYGTIRAQALPPRESLAFIEQLLGET,not soluble
13,MSLKNQIEKLLENFVPEGQQEKTDFKVFQDFAADEKNLNRSSIAHFTASVFVLNESHDKILGIYHKIYQSWGWVGGHADGNADLLAVAVKEVQEETGLRSFKKLSEMPISIEALPVFGHHHRKYGYVSAHIHLNVTFLFEAKESDSLQKNTDETGGLAWIPLEKFSEKSSEKEMRVIYDKIITRIINKEGHHHHHH,soluble
14,MKSITQLENKKVLVLGLAKSGEAAARLLAKLGAIVTVNDGKAFEENPSAQSLLEEGIKVVCGGHPLELLDENFELMVKNPGIRYDNPMVARALEKEIPVWTEVELAYLVSEAPIIGITGSNGKTTTTTMIADVLNHGGKSGVLSGNIGFPASEVAQSVTNQDTLVMELSSFQLMGIESFHPHIAVITNLMPTHIDYHGSFEEYVAAKWNIQNEMTSDDFIILNFNQDLAKELATQTNAQVVPFSTVEKVDGAYLENGGLYFKGELLMHADELGVPGSHNVENALATIAVAKLSGVSNQAIKETLSSFGGVKHRLQFVDTIDDVKFYNDSKSTNILATQKALSGFDNSKVILIAGGLDRGNEFDELIPDITGLKKMVILGESAPRVKRAADKAGVTYLDAKDVADATRIAFEQASAGDVVLLSPANASWDMYKNFEVRGDEFITTVERLKG,not soluble
